{
  "source": "paper PMC8826899",
  "key": {"[1]": {"target": "HSPA8-GST (recombinant full-length monkey HSPA8 with GST tag) (monkey)"}, "[2]": {"target": "HSPA8-GST (recombinant full-length monkey HSPA8 with GST tag) (monkey)", "remark": "listed apart in the source"}},
  "data": [
    {"substance": "PRRSV virions (PRRSV-2 strain BJ-4) (complex)", "values": [
      {"measurement": "PRRSV RNA abundance (RT-qPCR, 24 h) in MARC-145 cells after PRRSV (0.1 MOI) was pre-incubated with soluble HSPA8-GST (0.5, 1, 2 μM); GST protein 2 μM as control", "setting": "[1]", "result": 50, "unit": "% reduction"},
      {"measurement": "PRRSV infectivity (IFA) in MARC-145 cells whose surface HSPA8 (endogenous) was blocked with 16- and 32-fold diluted mouse HSPA8-GST pAbs", "setting": "[2]", "result": 75, "unit": "% decrease"},
      {"measurement": "PRRSV titers (TCID50) in MARC-145 cells whose surface HSPA8 (endogenous) was blocked with 16-fold diluted mouse HSPA8-GST pAbs; decrease (log10TCID50/mL)", "setting": "[2]", "result": 1}
    ]}
  ]
}
